B1: sp¦Q99986¦VRK1_HUMAN (protein, UniProt Q99986 1-396, looked up)
Serine/threonine-protein …: MPRVKAAQAGRQSSAKRHLAEQFAVGEIITDMAKKEWKVGLPIGQGGFGCIYLADMNSSESVGSDAPCVVKVEPSDNGPLFTELKFYQRAAKPEQIQKWIRTRKLKYLGVPKYWGSGLHDKNGKSYRFMIMDRFGSDLQKIYEANAKRFSRKTVLQLSLRILDILEYIHEHEYVHGDIKASNLLLNYKNPDQVYLVDYGLAYRYCPEGVHKEYKEDPKRCHDGTIEFTSIDAHNGVAPSRRGDLEILGYCMIQWLTGHLPWEDNLKDPKYVRDSKIRYRENIASLMDKCFPEKNKPGEIAKYMETVKLLDYTEKPLYENLRDILLQGLKAIGSKDDGKLDLSVVENGGLKAKTITKKRKKEIEESKEPGVEDTEWSNTQTEEAIQTRSRTRKRVQK
B2: sp¦Q1KMD3¦HNRL2_HUMAN (protein, UniProt Q1KMD3 1-747, looked up)
Heterogeneous nuclear …: MEVKRLKVTELRSELQRRGLDSRGLKVDLAQRLQEALDAEMLEDEAGGGGAGPGGACKAEPRPVAASGGGPGGDEEEDEEEEEEDEEALLEDEDEEPPPAQALGQAAQPPPEPPEAAAMEAAAEPDASEKPAEATAGSGGVNGGEEQGLGKREEDEPEERSGDETPGSEVPGDKAAEEQGDDQDSEKSKPAGSDGERRGVKRQRDEKDEHGRAYYEFREEAYHSRSKSPLPPEEEAKDEEEDQTLVNLDTYTSDLHFQVSKDRYGGQPLFSEKFPTLWSGARSTYGVTKGKVCFEAKVTQNLPMKEGCTEVSLLRVGWSVDFSRPQLGEDEFSYGFDGRGLKAENGQFEEFGQTFGENDVIGCFANFETEEVELSFSKNGEDLGVAFWISKDSLADRALLPHVLCKNCVVELNFGQKEEPFFPPPEEFVFIHAVPVEERVRTAVPPKTIEECEVILMVGLPGSGKTQWALKYAKENPEKRYNVLGAETVLNQMRMKGLEEPEMDPKSRDLLVQQASQCLSKLVQIASRTKRNFILDQCNVYNSGQRRKLLLFKTFSRKVVVVVPNEEDWKKRLELRKEVEGDDVPESIMLEMKANFSLPEKCDYMDEVTYGELEKEEAQPIVTKYKEEARKLLPPSEKRTNRRNNRNKRNRQNRSRGQGYVGGQRRGYDNRAYGQQYWGQPGNRGGYRNFYDRYRGDYDRFYGRDYEYNRYRDYYRQYNRDWQSYYYHHPQDRDRYYRNYYGYQGYR
B3: sp¦P49916¦DNLI3_HUMAN (protein, UniProt P49916 43-1009, looked up)
DNA ligase 3: LLHGHPLFLRRKPVLSFQGSHLRSRATYLVFLPGLHVGLCSGPCEMAEQRFCVDYAKRGTAGCKKCKEKIVKGVCRIGKVVPNPFSESGGDMKEWYHIKCMFEKLERARATTKKIEDLTELEGWEELEDNEKEQITQHIADLSSKAAGTPKKKAVVQAKLTTTGQVTSPVKGASFVTSTNPRKFSGFSAKPNNSGEAPSSPTPKRSLSSSKCDPRHKDCLLREFRKLCAMVADNPSYNTKTQIIQDFLRKGSAGDGFHGDVYLTVKLLLPGVIKTVYNLNDKQIVKLFSRIFNCNPDDMARDLEQGDVSETIRVFFEQSKSFPPAAKSLLTIQEVDEFLLRLSKLTKEDEQQQALQDIASRCTANDLKCIIRLIKHDLKMNSGAKHVLDALDPNAYEAFKASRNLQDVVERVLHNAQEVEKEPGQRRALSVQASLMTPVQPMLAEACKSVEYAMKKCPNGMFSEIKYDGERVQVHKNGDHFSYFSRSLKPVLPHKVAHFKDYIPQAFPGGHSMILDSEVLLIDNKTGKPLPFGTLGVHKKAAFQDANVCLFVFDCIYFNDVSLMDRPLCERRKFLHDNMVEIPNRIMFSEMKRVTKALDLADMITRVIQEGLEGLVLKDVKGTYEPGKRHWLKVKKDYLNEGAMADTADLVVLGAFYGQGSKGGMMSIFLMGCYDPGSQKWCTVTKCAGGHDDATLARLQNELDMVKISKDPSKIPSWLKVNKIYYPDFIVPDPKKAAVWEITGAEFSKSEAHTADGISIRFPRCTRIRDDKDWKSATNLPQLKELYQLSKEKADFTVVAGDEGSSTTGGSSEENKGPSGSAVSRKAPSKPSASTKKAEGKLSNSNSKDGNMQTAKPSAMKVGEKLATKSSPVKVGEKRKAADETLCQTKVLLDIFTGVRLYLPPSTPDFSRLRRYFVAFDGDLVQEFDMTSATHVLGSRDKNPAAQQVSPEWIWACIRKRRLVAPC

Tested on: human HL60 cells
Test: SWATH-MS proteomics, differential protein representation, akirin2 KO vs WT HL60 cells
Type: cell-based
Settings: SWATH-MS, akirin2 KO vs WT HL60 cells, under-represented in KO
Summary of the method: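 First, proteins from wild-type and knockout cells are digested with trypsin by FASP. Next, pooled IDA runs generate a reference ion library. Then six samples of 5 µg each are acquired by data-independent SWATH, and protein areas are normalized to the summed area of all detected proteins.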

Going from B1 to B2, the “Fold Change” value falls from 0.7448 to 0.7447.

For B3, the “Fold Change” value was 0.7417.

B1 and B2 are the same in “Log (Fold Change)” value: -0.128 for the first, -0.128 for the second.

For B3, the “Log (Fold Change)” value was -0.1297.

Source: PMC8298264, “Function of cofactor Akirin2 in the regulation of gene expression in model human neutrophil-like HL60 cells” (Bioscience Reports, 2021)
